The results in this text go back to FireProtDB.

The labels stand for the following.
B1: Regulatory protein cro wild type, P03036 (protein)
chain: MQTLSERLKKRRIALKMTQTELATKAGVKQQSIQLIEAGVTKRPRFLFEIAMALNCDPVWLQYGTKRGKAA
B2: Nucleoside diphosphate kinase, mitochondrial wild type, P34093 (protein)
chain: MFSRFARAFPKILASGASQRTFATVQKAFANPTSKKLIVGSSLLIGSAFATTSFVACENKSVPLVGLPGTNQERSFIAIKVSSTQRRLIGEIIARFEKKGFKLVGIKILVPTPEHAAKHYEDLNKKPFFNGLVKFFSSGAVVAMVFEGKDVVRTGRVLIGATDPSQSAPGTIRFDLCIETGRNIIHGSDSNESAAHEIALWFKEDEIANWVSTNPVYEKM
B3: Lysozyme C, milk isozyme wild type, P81708 (protein)
chain: KIFSKCELARKLKSMGMDGFHGYSLANWVCMAEYESNFNTQAFNGRNSNGSSDYGIFQLNSKWWCKSNSHSSANACNIMCSKFLDDNIDDDIACAKRVVKDPNGMSAWVAWVKHCKGKDLSKYLASCNL
B4: Single-stranded DNA-binding protein wild type, P03695 (protein)
chain: MFKRKSTAELAAQMAKLNGNKGFSSEDKGEWKLKLDNAGNGQAVIRFLPSKNDEQAPFAILVNHGFKKNGKWYIETCSSTHGDYDSCPVCQYISKNDLYNTDNKEYSLVKRKTSYWANILVVKDPAAPENEGKVFKYRFGKKIWDKINAMIAVDVEMGETPVDVTCPWEGANFVLKVKQVSGFSNYDESKFLNQSAIPNIDDESFQKELFEQMVDLSEMTSKDKFKSFEELNTKFGQVMGTAVMGGAAATAAKKADKVADDLDAFNVDDFNTKTEDDFMSSSSGSSSSADDTDLDDLLNDL
B5: Growth factor receptor-bound protein 2 wild type, Q08012 (protein)
chain: MEAIAKHDFSATADDELSFRKTQILKILNMEDDSNWYRAELDGKEGLIPSNYIEMKNHDWYYGRITRADAEKLLSNKHEGAFLIRISESSPGDFSLSVKCPDGVQHFKVLRDAQSKFFLWVVKFNSLNELVEYHRTASVSRSQDVKLRDMIPEEMLVQALYDFVPQESGELDFRRGDVITVTDRSDENWWNGEIGNRKGIFPATYVTPYHS
B6: wild type, Q8VD40 (protein)
chain: MDGDGDPESVGQPEEVSPEEACAEEACAEGDRPGEEEEEEQEELEEAAYLAELPEALLLRVLAQLPAAELVQACRLVCLRWKELVDGAPLWLLKCQQEGLVPEGCGEEEERDHWQRFYFLSKRRRNLLRNPCGEEDLEGWCDVEHGGDGWRVEEIPGDSGVEFPQDDSVRKYFASSFEWCRKAQVVDLQAEGYWEELLDTTQPAIVAKDWYSGRSDAGCLYELSVKLLSEHEDVLAEFNTGQVPVSPDSEEGGWTEISHTFTDYGPGVRFVRFEHGGQDAVYWKGWFGARVTNSSVWVEP
B7: Lysozyme C wild type, P00708 (protein)
chain: KDIPRCELVKILRRHGFEGFVGKTVANWVCLVKHESGYRTTAFNNNGPNSRDYGIFQINSKYWCNDGKTRGSKNACNINCSKLRDDNIADDIQCAKKIAREARGLTPWVAWKKYCQGKDLSSYVRGC
B8: General odorant-binding protein lush wild type, O02372 (protein)
chain: MKHWKRRSSAVFAIVLQVLVLLLPDPAVAMTMEQFLTSLDMIRSGCAPKFKLKTEDLDRLRVGDFNFPPSQDLMCYTKCVSLMAGTVNKKGEFNAPKALAQLPHLVPPEMMEMSRKSVEACRDTHKQFKESCERVYQTAKCFSENADGQFMWP

Where “and” joins values, the source holds several entries; their conditions need not be identical. Identical values can stand only once.

The term Tm denotes the temperature at the midpoint of the melting transition.

For the first data set the following is noted: Enterobacteria phage 434; pH 6; 20 °C; Urea; Fluorescence; KH2PO4 25 mM; KCl 100 mM; reversible: yes(>95%); whole UniProt chain shown.
Take B1: the denaturant m value is 1.05 kcal/mol/M, the “denaturant midpoint (higher = more stable)” value (“denaturant midpoint” below) came to 3.35 M and the unfolding free energy was found to be 3.5 kcal/mol.

Still in this data set, the particulars now being: Enterobacteria phage 434; pH 6; 20 °C; Urea; far-UV CD; KH2PO4 25 mM; KCl 100 mM; reversible: yes(>95%); whole UniProt chain shown.
B1: the denaturant m value is 1.02 kcal/mol/M, the “denaturant midpoint” value amounted to 3.5 M and the unfolding free energy is 3.6 kcal/mol.

Still in this data set, the particulars now being: Enterobacteria phage 434; pH 7; Thermal; DSC; K-phosphate 20 mM; whole UniProt chain shown.
Take B1: the Tm turned out to be 46.4 °C and the “unfolding enthalpy (calorimetric)” value amounted to 53.8 kcal/mol.

Staying with this data set, now noted: Dictyostelium discoideum; pH 7.5; Thermal; DSC; HEPES-NaOH 50 mM; reversible: no; whole UniProt chain shown.
B2: the Tm is 61.8 °C and the “unfolding enthalpy (calorimetric)” value came out at 785 kcal/mol.

The data set is the same for the next values; noted with them: Dictyostelium discoideum; pH 7.5; Thermal; DSC; HEPES-NaOH 50 mM; transition: 3; reversible: no; whole UniProt chain shown.
On to B2, for which the melting temperature (Tm) stood at 55.7 °C and the “unfolding enthalpy (calorimetric)” value amounted to 319 kcal/mol.

The same data set, now with this note: Dictyostelium discoideum; pH 7.5; Thermal; DSC; HEPES-NaOH 50 mM; transition: 3; reversible: yes; whole UniProt chain shown.
In the case of B2, the Tm is 37.5 °C and the “unfolding enthalpy (calorimetric)” value stood at 97 kcal/mol.

Staying with this data set, now noted: Dictyostelium discoideum; pH 8; 25 °C; Urea; Absorbance; Tris-acetate 83 mM; reversible: yes; whole UniProt chain shown.
Turning to B2, the denaturant m value amounted to 1.71 kcal/mol/M and the unfolding free energy was 5.42 kcal/mol.

The same data set, now with this note: Canis lupus familiaris; pH 4.5; 25 °C; GdnHCl; CD; acetate 50 mM; CaCl2 2 mM; whole UniProt chain shown.
Turning to B3, the denaturant m value was 2.43 kcal/mol/M and 1 kcal/mol/M; the unfolding free energy was 2.84 kcal/mol and 5.27 kcal/mol.

The data set is the same for the next values; noted with them: Canis lupus familiaris; pH 4.5; 25 °C; GdnHCl; CD; acetate 50 mM; whole UniProt chain shown.
For the protein B3, the denaturant m value is 2.48 kcal/mol/M and 1 kcal/mol/M.

The data set is the same for the next values; noted with them: Canis lupus familiaris; pH 4.5; Thermal; DSC; Sodium acetate/glycine-HCl 50 mM/50 mM/; transition: 3; reversible: yes; whole UniProt chain shown.
As for B3, the Tm worked out at 39 °C and the “unfolding enthalpy (calorimetric)” value was found to be 44.6 kcal/mol.

The data set is the same for the next values; noted with them: Enterobacteria phage T4; pH 8; Thermal; DSC; Tris-HCl 10 mM; NaCl 200 mM; reversible: yes; whole UniProt chain shown.
For B4, the Tm is 49 °C and the “unfolding enthalpy (calorimetric)” value is 84 kcal/mol.

Still in this data set, the particulars now being: Drosophila melanogaster; pH 6; 5 °C; GdnHCl; CD; sodium phosphate 50 mM; reversible: yes; whole UniProt chain shown.
With B5, the denaturant m value stood at 3.48 kcal/mol/M and the unfolding free energy came out at 1.47 kcal/mol.

Still in this data set, the particulars now being: Drosophila melanogaster; pH 6; 5 °C; GdnHCl; Fluorescence; sodium phosphate 50 mM; Na2SO4 0.4 M; reversible: yes; whole UniProt chain shown.
For the protein B5, the denaturant m value is 1.39 kcal/mol/M and the unfolding free energy stood at 2.18 kcal/mol.

The data set is the same for the next values; noted with them: Drosophila melanogaster; pH 6; Thermal; CD; sodium phosphate 50 mM; Na2SO4 0.4 M; reversible: yes; whole UniProt chain shown.
On to B5, for which the melting temperature (Tm) came out at 60.1 °C and the “unfolding enthalpy (van 't Hoff)” value was 33.1 kcal/mol.

Still in this data set, the particulars now being: Cavia porcellus; pH 7.4; 25 °C; Urea; CD; NaPi 0.01 M; NaCl 0.15 M; reversible: Yes; whole UniProt chain shown.
On to B6, for which the denaturant m value was found to be 0.79 kcal/mol/M and the unfolding free energy worked out at 2.64 kcal/mol.

The data set is the same for the next values; noted with them: Cavia porcellus; pH 7.4; Thermal; DSC; NaPi 0.01 M; NaCl 0.15 M; reversible: No; whole UniProt chain shown.
For the protein B6, the Tm amounted to 57 °C and the “unfolding enthalpy (calorimetric)” value turned out to be 141 kcal/mol.

The data set is the same for the next values; noted with them: Columba livia; pH 6; Thermal; CD; MES 50 mM; potassium chloride 100 mM; transition: 3; whole UniProt chain shown.
For the protein B7, the Tm turned out to be 70 °C.

Staying with this data set, now noted: Drosophila melanogaster; pH 6.5; 25 °C; Urea; Fluorescence; sodium phosphate 20 mM; whole UniProt chain shown.
As for B8, the denaturant m value was 1.24 kcal/mol/M and 1.76 kcal/mol/M and 1.77 kcal/mol/M; the “denaturant midpoint” value was 2.39 M and 2.98 M and 4.11 M; the unfolding free energy was 3.02 kcal/mol and 5.26 kcal/mol and 7.35 kcal/mol.
